Experimental data published in the RNAGym collection of RNA variant scans (doi:10.1073/pnas.2313332121).

B1: TPR t1 (parent)
chain: GACCAAUCUGCCCUCAGAGCUCGAGAACAUCUUCGGAUGCAGAGGAGGCAGGCUUCGGUGGCGCGAUAGCGCCAACGUCCUCAACCUCCAAUGCAUCCCACCACAUGAUGAUGCCUGAAGAGCCUUGGUUUUUUG

Variants of: B1
Assay: polymerase ribozyme fitness, log enrichment relative to wild type (log ratio); higher = more active; in vitro selection for triplet polymerase activity
Procedure, shortened: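 Frozen incubation at −7 °C formed the core of a single, triplicate in vitro selection round applied to PCR-built, transcribed mutant libraries of each subunit of a heterodimeric triplet polymerase ribozyme. Extended constructs were gel-excised, captured with streptavidin beads and amplified by RT-PCR, and input and output libraries were Illumina-sequenced with a filter of ≥10 input reads and ≥1 read per output. Fitness is the logarithm of genotype enrichment relative to wild-type enrichment, with inverse-variance-weighted replicate averaging, and the logarithm is base 2.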

First: A75G
Second: C73U A103G
The “polymerase ribozyme fitness (log ratio)” value of the first is higher: 0.101 for the first, -4.17 for the second.

Compared with C72G G135C, C72G G135U is higher in “polymerase ribozyme fitness (log ratio)” value: -1.17 for the first, -0.702 for the second.

Going from U78C A111G G117A to C73U C76A A103U G120C, the “polymerase ribozyme fitness (log ratio)” value falls from -2.7 to -5.45.

Compared with C72U C89A, C73A U81G C88A U112G C115A U125A is lower in “polymerase ribozyme fitness (log ratio)” value: -1.22 for the first, -5.14 for the second.

Compared with A74U C86U, A74C G120A U132G U134A is higher in “polymerase ribozyme fitness (log ratio)” value: -0.818 for the first, 0.272 for the second.

Going from A75G C85U U130C to G77C C89G G122U C123U, the “polymerase ribozyme fitness (log ratio)” value falls from -0.982 to -1.58.

First: C72A A83G
Second: A74G C101U
The “polymerase ribozyme fitness (log ratio)” value of the first is lower: -0.951 for the first, 0.132 for the second.

First: C73A G77A
Second: C72U U78C C97U
The “polymerase ribozyme fitness (log ratio)” value of the first is higher: -0.332 for the first, -1.02 for the second.

First: C73G C80U C123G
Second: C72G C101G
The “polymerase ribozyme fitness (log ratio)” value of the first is higher: -0.835 for the first, -1.33 for the second.

Going from G71U C124G U126C to C72G C104A U116A, the “polymerase ribozyme fitness (log ratio)” value falls from 2.04 to -5.17.

First: G71U U131A
Second: C72U U78G
The “polymerase ribozyme fitness (log ratio)” value of the first is higher: 0.00469 for the first, -1.7 for the second.

Going from C73U C80U to A74U C99G U106A, the “polymerase ribozyme fitness (log ratio)” value falls from -0.17 to -6.33.

First: U78A A95G C102A
Second: G71U U132C
The “polymerase ribozyme fitness (log ratio)” value of the first is lower: -2.41 for the first, -0.492 for the second.

Compared with U78A U112A, U78C A95C C123A is lower in “polymerase ribozyme fitness (log ratio)” value: 1.06 for the first, 0.0148 for the second.

C72U C123A U126G and A75C G77C are within 0.2 log units of each other in “polymerase ribozyme fitness (log ratio)” value: -1.44 for the first, -1.58 for the second.

C72A G135U and C73A G93C are within 0.2 log units of each other in “polymerase ribozyme fitness (log ratio)” value: -0.828 for the first, -0.962 for the second.

Going from C73U A90G C124A to C73A G128A, the “polymerase ribozyme fitness (log ratio)” value falls from 1.85 to -2.12.

Going from A74G C98G to C72U G113A, the “polymerase ribozyme fitness (log ratio)” value rises from -6.09 to -1.48.

Going from C76G C101A to C72G A90G G110U G135C, the “polymerase ribozyme fitness (log ratio)” value rises from -3.2 to -2.

First: C73U U106C
Second: U78A U109C
The “polymerase ribozyme fitness (log ratio)” value of the first is higher: -0.194 for the first, -4.47 for the second.

Going from C72A C82G to C73A C88U C99A A100C, the “polymerase ribozyme fitness (log ratio)” value falls from -0.603 to -3.87.

Going from C72A C85U A90C to G77U C79U U106C, the “polymerase ribozyme fitness (log ratio)” value rises from -1.5 to -0.595.

Compared with G77U C79U U106A, C76A C79G is lower in “polymerase ribozyme fitness (log ratio)” value: -0.0765 for the first, -0.726 for the second.

Going from G77A C82A U109A to A74G C94U, the “polymerase ribozyme fitness (log ratio)” value rises from -4.87 to 0.88.

Compared with A74U C85U C94A, C73A C102A is lower in “polymerase ribozyme fitness (log ratio)” value: -1.55 for the first, -2.07 for the second.

First: C76A C123G
Second: C72A C89A C124G
The “polymerase ribozyme fitness (log ratio)” value of the first is lower: -0.164 for the first, 0.634 for the second.

Going from A74U U112A G113C A118C G135U to C72A C73U, the “polymerase ribozyme fitness (log ratio)” value rises from -3.34 to -0.581.

C72U A74C and C73A A111C are within 0.2 log units of each other in “polymerase ribozyme fitness (log ratio)” value: 0.54 for the first, 0.669 for the second.

Going from G71U U126G to A74U U116G U133G, the “polymerase ribozyme fitness (log ratio)” value falls from -2.34 to -2.9.

Going from C73A A74G to C73A A118G, the “polymerase ribozyme fitness (log ratio)” value rises from -0.555 to 0.164.

Going from U78A A105G to C72A A121C, the “polymerase ribozyme fitness (log ratio)” value rises from -2.86 to 1.46.

Going from C72A A121G to C72A A121U, the “polymerase ribozyme fitness (log ratio)” value rises from 1.6 to 2.22.

Compared with G71U U87A, G71U U87G is higher in “polymerase ribozyme fitness (log ratio)” value: -1.3 for the first, -0.424 for the second.

Going from C76A A95U C115U to C73U U109C, the “polymerase ribozyme fitness (log ratio)” value rises from -4.9 to -3.63.

Compared with C73U U109G, C73G U81A C85U C115U is lower in “polymerase ribozyme fitness (log ratio)” value: -4.33 for the first, -5.48 for the second.

Going from C76A C89U U129A to C76G U87G, the “polymerase ribozyme fitness (log ratio)” value rises from -2.51 to -0.0658.

Compared with A75U G128A, C72G A95U is higher in “polymerase ribozyme fitness (log ratio)” value: -1.64 for the first, -1.07 for the second.

Compared with U78A C124U U125A U133C, C72G U133G is lower in “polymerase ribozyme fitness (log ratio)” value: 1.84 for the first, 0.34 for the second.

Going from C72G G120C G128C to C72A U132A, the “polymerase ribozyme fitness (log ratio)” value rises from -3.07 to -0.00723.

Compared with C72G U132C, A74U C80U is lower in “polymerase ribozyme fitness (log ratio)” value: -0.428 for the first, -1.18 for the second.

First: A74U C89U
Second: C72U A95G C98U G113A A118G
The “polymerase ribozyme fitness (log ratio)” value of the first is higher: -0.535 for the first, -4.04 for the second.

Going from C72G C123A to C73U C94U G113U, the “polymerase ribozyme fitness (log ratio)” value falls from -0.175 to -3.64.

Compared with C72G C86A U87A, C72G U129A is higher in “polymerase ribozyme fitness (log ratio)” value: -4.6 for the first, -1.02 for the second.

Going from C72G U129G to C72U C124G, the “polymerase ribozyme fitness (log ratio)” value rises from -1.34 to 1.47.

First: G77C U87A G93C A105U C115A
Second: G77A U78C A105C A121C
The “polymerase ribozyme fitness (log ratio)” value of the first is lower: -5.31 for the first, -1.42 for the second.

Going from C73U C86A C97U C102U to C72A C79A, the “polymerase ribozyme fitness (log ratio)” value rises from -4.11 to -0.505.

Going from C72U C86A to G77U U92G, the “polymerase ribozyme fitness (log ratio)” value falls from -0.584 to -2.77.

Going from A74U A95U to A74U U96A A100U G113U, the “polymerase ribozyme fitness (log ratio)” value falls from -0.222 to -6.78.

C72G C85G and C72G C85A are within 0.2 log units of each other in “polymerase ribozyme fitness (log ratio)” value: -1.98 for the first, -1.82 for the second.

U78A A111C and A74C G120U are within 0.2 log units of each other in “polymerase ribozyme fitness (log ratio)” value: -0.127 for the first, 0.00369 for the second.

Compared with A74C G120C, C76A A84U U106A G120U is lower in “polymerase ribozyme fitness (log ratio)” value: 1.48 for the first, -2.24 for the second.

Compared with A74C G93A, A74G G117U is lower in “polymerase ribozyme fitness (log ratio)” value: -0.578 for the first, -2.41 for the second.

First: C73U A119G
Second: C73U A119U
The “polymerase ribozyme fitness (log ratio)” value of the first is higher: 1.13 for the first, -0.348 for the second.

Going from C72G C73U C86G to C72U G117C U125G, the “polymerase ribozyme fitness (log ratio)” value falls from -5.02 to -5.63.

Compared with C73U G113A G117A, G71U U112A is higher in “polymerase ribozyme fitness (log ratio)” value: -6.9 for the first, 1.49 for the second.

First: A74C G110A
Second: A74C G110C
The “polymerase ribozyme fitness (log ratio)” value of the first is higher: -1.2 for the first, -4.36 for the second.

Going from C76G G77U U78G U112C to A74G C123G, the “polymerase ribozyme fitness (log ratio)” value falls from 2.21 to 1.31.

First: A74G C123U
Second: C72U G113C C123G
The “polymerase ribozyme fitness (log ratio)” value of the first is higher: 1.13 for the first, -1.69 for the second.

Compared with C73G U87A G122A, C73U C85U is higher in “polymerase ribozyme fitness (log ratio)” value: -4.5 for the first, -0.444 for the second.

Going from C73U C85G to C73U G93C C124U U125C, the “polymerase ribozyme fitness (log ratio)” value rises from -2.85 to -1.39.

First: C72U A91U
Second: A74G C114G
The “polymerase ribozyme fitness (log ratio)” value of the first is higher: -1.73 for the first, -2.02 for the second.

Compared with C72G C97U G122A, C76U C89G C98U is lower in “polymerase ribozyme fitness (log ratio)” value: -1.57 for the first, -4.45 for the second.

Going from C72U G93U to C72U G93A, the “polymerase ribozyme fitness (log ratio)” value rises from -1.56 to -0.542.

Going from G77A A83U A84C C86A C101U G117C to C72G U92A U126G U129A, the “polymerase ribozyme fitness (log ratio)” value falls from -6.46 to -6.86.

Compared with C72A G93C C114U C115U, G71U U133A is higher in “polymerase ribozyme fitness (log ratio)” value: -6.52 for the first, -0.757 for the second.

First: C72U U112C
Second: C72U U112A
The “polymerase ribozyme fitness (log ratio)” value of the first is higher: 1.19 for the first, 0.821 for the second.

Going from C72U A84G C114A C115A to C72A C82A U96G A100U C115A, the “polymerase ribozyme fitness (log ratio)” value rises from -6.51 to -3.23.

First: G77A C79U G120U C123A
Second: C72G C88U U92A
The “polymerase ribozyme fitness (log ratio)” value of the first is higher: 0.335 for the first, -3.52 for the second.

Compared with C73U C115G U132A, G77A A83C C86U U116A G120C U125A is lower in “polymerase ribozyme fitness (log ratio)” value: -1.49 for the first, -1.96 for the second.

Compared with C76U C123A, C73A C98A is lower in “polymerase ribozyme fitness (log ratio)” value: 0.138 for the first, -4.94 for the second.

Going from U78A G120A to C72U C86U G117A, the “polymerase ribozyme fitness (log ratio)” value falls from 0.814 to -2.26.

Going from C72G U78A U109A G128A to G77A C89A, the “polymerase ribozyme fitness (log ratio)” value rises from -5.92 to -1.73.

Compared with C72U C123G, C73U U87A C115A is lower in “polymerase ribozyme fitness (log ratio)” value: 0.829 for the first, -0.423 for the second.

First: G77A C82G
Second: G77A U112A
The “polymerase ribozyme fitness (log ratio)” value of the first is lower: -1.13 for the first, 0.751 for the second.

Compared with G77A U112G, C72G A83G is lower in “polymerase ribozyme fitness (log ratio)” value: 0.316 for the first, -0.0856 for the second.

Going from C73U U96A A108G C114A to G77U U96A, the “polymerase ribozyme fitness (log ratio)” value rises from -5.25 to -1.04.

Compared with C72A C85A A121C, C72U U78C C94U is lower in “polymerase ribozyme fitness (log ratio)” value: 1.56 for the first, -0.922 for the second.

Going from G77U A105G to C72U C94G, the “polymerase ribozyme fitness (log ratio)” value rises from -2.9 to -1.95.

A75G C94A and G77C G93A are within 0.2 log units of each other in “polymerase ribozyme fitness (log ratio)” value: -0.695 for the first, -0.532 for the second.

Going from G77A C101A to U78C A103G U109A C114A A119C, the “polymerase ribozyme fitness (log ratio)” value falls from -1.18 to -6.28.

First: C73A U109C
Second: A75G C88A C104A U112A
The “polymerase ribozyme fitness (log ratio)” value of the first is lower: -2.34 for the first, -1.1 for the second.

First: C73U G117C
Second: C73U G117U
The “polymerase ribozyme fitness (log ratio)” value of the first is lower: -2.95 for the first, -1.43 for the second.

First: C72U C82G G113U
Second: C72A A75C
The “polymerase ribozyme fitness (log ratio)” value of the first is lower: -4.51 for the first, -0.344 for the second.

With G71U G117A U130C the “polymerase ribozyme fitness (log ratio)” value was -1.71.
